Laboratory results published in US20180371090A1.

Key:
[1] = biological target: His-tagged human FcγRI (human) (UniProt P12314); assay: SPR (Biacore T200), His-tagged receptor captured by anti-penta-His, antibody injected, 25 C
[2] = biological target: His-tagged human FcγRIIIB (human) (UniProt O75015); assay: SPR steady-state, His-captured receptor, 25 C
[3] = biological target: His-tagged cynomolgus FcγRIIIA (cynomolgus) (UniProt Q8SPW2); assay: SPR steady-state, His-captured receptor, 25 C
[4] = biological target: His-tagged cynomolgus FcγRIIB (cynomolgus); assay: SPR steady-state, His-captured receptor, 25 C
[5] = biological target: His-tagged human FcγRIIA (H131) (human) (UniProt P12318); assay: SPR steady-state, His-captured receptor, 25 C
[6] = biological target: His-tagged human FcγRIIIA (V176) (human) (UniProt P08637); assay: SPR steady-state, His-captured receptor, 25 C
[7] = biological target: His-tagged human FcγRIIIA (F176) (human) (UniProt P08637); assay: SPR steady-state, His-captured receptor, 25 C
[8] = biological target: His-tagged cynomolgus FcγRIIA (cynomolgus); assay: SPR steady-state, His-captured receptor, 25 C
[9] = biological target: His-tagged human FcγRIIA (R131) (human) (UniProt P12318); assay: SPR steady-state, His-captured receptor, 25 C
[10] = biological target: His-tagged human FcγRIIB (human) (UniProt P31994); assay: SPR steady-state, His-captured receptor, 25 C
His-tagged human FcγRIIB (human), sequence (P31994 46-217 limits assumed): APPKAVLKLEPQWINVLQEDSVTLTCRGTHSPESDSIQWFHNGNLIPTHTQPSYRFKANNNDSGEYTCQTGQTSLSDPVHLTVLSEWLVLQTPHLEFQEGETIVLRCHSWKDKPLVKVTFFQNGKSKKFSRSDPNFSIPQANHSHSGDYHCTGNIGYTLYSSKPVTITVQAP

His-tagged human FcγRI (human), sequence (P12314 16-288 limits assumed): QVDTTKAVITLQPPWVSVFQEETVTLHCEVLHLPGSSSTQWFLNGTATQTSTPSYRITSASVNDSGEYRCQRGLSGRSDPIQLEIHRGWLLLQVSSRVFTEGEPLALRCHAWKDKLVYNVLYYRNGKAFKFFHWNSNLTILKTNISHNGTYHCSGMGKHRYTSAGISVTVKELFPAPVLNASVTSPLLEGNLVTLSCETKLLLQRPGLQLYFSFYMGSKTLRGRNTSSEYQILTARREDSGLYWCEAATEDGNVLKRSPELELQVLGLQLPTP
His-tagged cynomolgus FcγRIIIA (cynomolgus), sequence (Q8SPW2 17-208 limits assumed): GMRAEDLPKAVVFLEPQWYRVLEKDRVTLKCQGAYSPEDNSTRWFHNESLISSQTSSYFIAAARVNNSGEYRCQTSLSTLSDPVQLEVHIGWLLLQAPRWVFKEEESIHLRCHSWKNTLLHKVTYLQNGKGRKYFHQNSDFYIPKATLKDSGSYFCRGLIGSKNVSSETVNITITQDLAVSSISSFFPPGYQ
His-tagged human FcγRIIA (H131) (human), sequence (P12318 36-218 limits assumed): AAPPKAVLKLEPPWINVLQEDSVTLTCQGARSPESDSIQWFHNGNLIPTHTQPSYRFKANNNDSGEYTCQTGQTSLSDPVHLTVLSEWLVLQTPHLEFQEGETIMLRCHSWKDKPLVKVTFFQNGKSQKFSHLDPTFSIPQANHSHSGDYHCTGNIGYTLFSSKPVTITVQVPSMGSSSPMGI
His-tagged human FcγRIIIA (V176) (human), sequence (P08637 17-208 F176V limits assumed): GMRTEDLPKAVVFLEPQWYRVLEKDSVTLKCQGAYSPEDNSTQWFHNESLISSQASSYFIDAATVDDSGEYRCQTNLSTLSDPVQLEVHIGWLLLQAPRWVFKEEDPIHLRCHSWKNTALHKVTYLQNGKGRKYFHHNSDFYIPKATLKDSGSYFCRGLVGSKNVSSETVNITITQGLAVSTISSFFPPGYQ
His-tagged human FcγRIIIA (F176) (human), sequence (P08637 17-208 limits assumed): as the sequence (P08637 17-208 F176V limits assumed) above, with V160F counted along it
His-tagged human FcγRIIIB (human), sequence (O75015 17-200 limits assumed): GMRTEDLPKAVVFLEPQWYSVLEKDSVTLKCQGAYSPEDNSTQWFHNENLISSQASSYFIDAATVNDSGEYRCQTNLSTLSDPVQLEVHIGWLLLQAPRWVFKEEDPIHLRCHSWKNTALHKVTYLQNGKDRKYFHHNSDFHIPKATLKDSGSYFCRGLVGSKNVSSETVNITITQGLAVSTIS
His-tagged human FcγRIIA (R131) (human), sequence (P12318 36-218 H167R limits assumed): as the sequence (P12318 36-218 limits assumed) above, with H132R counted along it

Row | Kd [1] | T1/2 [1] | Kd [2] | Kd [3] | Kd [4] | Kd [5] | Kd [6] | Kd [7] | Kd [8] | koff [1] | kon [1] | Kd [9] | Kd [10] | Substance
1 | 0.0043 µM | 15 min | 2.3 µM | 0.6 µM | 4.2 µM | 1.1 µM | 1.5 µM | 1.3 µM | 4.2 µM | – | – | – | – | Wild-type IgG1 Isotype Control (antibody)
2 | 0.0139 µM | 5 min | – | 5.8 µM | 9.6 µM | 12 µM | 10 µM | 26 µM | 19.3 µM | 0.00236 s⁻¹ | 171000 M⁻¹ s⁻¹ | 10 µM | 9.8 µM | Wild-type IgG4 "CPPC" Isotype Control (antibody)
